Measurements taken from the supplement of paper PMC9112550, “Optimization of the antimicrobial peptide Bac7 by deep mutational scanning” (BMC Biology, 2022).

These sequences were tested on Escherichia coli TOP10 (assay: shrunken log2 fold change of peptide-encoding DNA abundance (4.5 h post-induction vs induction); higher = less antimicrobial activity (less host growth inhibition)). Settings: time post-induction: 4.5 h; library: site-saturation at positions 5, 18, 19, 20.
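Note: peptides expressed intracellularly from a pBAD plasmid library in pooled LB shake-flask culture, induced with 0.3% L-arabinose, DNA abundance read by NGS, three biological replicates, DESeq2 with apeglm shrinkage.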

Row | Sequence | shrunken log2 fold change
1 | RRIRDRPPRLPRPRPRPWYIPRP | -0.0219
2 | RRIRDRPPRLPRPRPRPWYWPRP | 0.000762
3 | RRIRDRPPRLPRPRPRPYCYPRP | -0.125
4 | RRIRDRPPRLPRPRPRPYDLPRP | -0.00674
5 | RRIRDRPPRLPRPRPRPYEAPRP | -0.108
6 | RRIRDRPPRLPRPRPRPYEFPRP | 0.047
7 | RRIRDRPPRLPRPRPRPYFSPRP | -0.345
8 | RRIRDRPPRLPRPRPRPYGCPRP | 0.141
9 | RRIRDRPPRLPRPRPRPYIIPRP | -0.758
10 | RRIRDRPPRLPRPRPRPYINPRP | -0.108
11 | RRIRDRPPRLPRPRPRPYKSPRP | -0.106
12 | RRIRDRPPRLPRPRPRPYLHPRP | -0.119
13 | RRIRDRPPRLPRPRPRPYLKPRP | -0.443
14 | RRIRDRPPRLPRPRPRPYNAPRP | -0.0556
15 | RRIRDRPPRLPRPRPRPYNGPRP | -0.0516
16 | RRIRDRPPRLPRPRPRPYNQPRP | -0.135
17 | RRIRDRPPRLPRPRPRPYNVPRP | -0.0265
18 | RRIRDRPPRLPRPRPRPYPSPRP | -0.167
19 | RRIRDRPPRLPRPRPRPYQFPRP | -0.0464
20 | RRIRDRPPRLPRPRPRPYQLPRP | -0.0742
21 | RRIRDRPPRLPRPRPRPYSAPRP | -0.0545
22 | RRIRDRPPRLPRPRPRPYSRPRP | -0.00164
23 | RRIRDRPPRLPRPRPRPYTHPRP | -0.267
24 | RRIRDRPPRLPRPRPRPYTLPRP | -0.153
25 | RRIRDRPPRLPRPRPRPYTRPRP | -0.0984

Row | Sequence | shrunken log2 fold change
26 | RRIRDRPPRLPRPRPRPYVRPRP | -0.402
27 | RRIRDRPPRLPRPRPRPYYDPRP | -0.621
28 | RRIRERPPRLPRPRPRPAAFPRP | -0.0909
29 | RRIRERPPRLPRPRPRPAAHPRP | -0.128
30 | RRIRERPPRLPRPRPRPAANPRP | 0.0774
31 | RRIRERPPRLPRPRPRPACHPRP | -0.0945
32 | RRIRERPPRLPRPRPRPACQPRP | 0.146
33 | RRIRERPPRLPRPRPRPACRPRP | 0.392
34 | RRIRERPPRLPRPRPRPAFNPRP | 0.495
35 | RRIRERPPRLPRPRPRPAGYPRP | 0.0991
36 | RRIRERPPRLPRPRPRPAHFPRP | 0.0793
37 | RRIRERPPRLPRPRPRPAHNPRP | -0.0074
38 | RRIRERPPRLPRPRPRPAHWPRP | 0.339
39 | RRIRERPPRLPRPRPRPAKGPRP | -0.321
40 | RRIRERPPRLPRPRPRPALIPRP | 0.129
41 | RRIRERPPRLPRPRPRPALNPRP | 0.0441
42 | RRIRERPPRLPRPRPRPAMCPRP | -0.456
43 | RRIRERPPRLPRPRPRPAMPPRP | -0.0115
44 | RRIRERPPRLPRPRPRPANVPRP | -0.0342
45 | RRIRERPPRLPRPRPRPAPQPRP | 0.31
46 | RRIRERPPRLPRPRPRPASLPRP | 0.0301
47 | RRIRERPPRLPRPRPRPASQPRP | -0.0177
48 | RRIRERPPRLPRPRPRPATHPRP | -0.264
49 | RRIRERPPRLPRPRPRPCAYPRP | -1.05
50 | RRIRERPPRLPRPRPRPCDQPRP | 0.0916

Row | Sequence | shrunken log2 fold change
51 | RRIRERPPRLPRPRPRPCEVPRP | 0.028
52 | RRIRERPPRLPRPRPRPCFLPRP | -0.647
53 | RRIRERPPRLPRPRPRPCFMPRP | -0.231
54 | RRIRERPPRLPRPRPRPCGRPRP | -0.0316
55 | RRIRERPPRLPRPRPRPCGSPRP | 0.0206
56 | RRIRERPPRLPRPRPRPCHNPRP | -0.0168
57 | RRIRERPPRLPRPRPRPCHYPRP | -0.224
58 | RRIRERPPRLPRPRPRPCIFPRP | -0.749
59 | RRIRERPPRLPRPRPRPCIGPRP | -0.479
60 | RRIRERPPRLPRPRPRPCKCPRP | -0.01
61 | RRIRERPPRLPRPRPRPCKLPRP | -0.187
62 | RRIRERPPRLPRPRPRPCKQPRP | -0.086
63 | RRIRERPPRLPRPRPRPCNQPRP | -0.296
64 | RRIRERPPRLPRPRPRPCNTPRP | -0.118
65 | RRIRERPPRLPRPRPRPCPHPRP | -0.105
66 | RRIRERPPRLPRPRPRPCQMPRP | -0.161
67 | RRIRERPPRLPRPRPRPCQPPRP | 0.0208
68 | RRIRERPPRLPRPRPRPCRGPRP | 0.0764
69 | RRIRERPPRLPRPRPRPCSFPRP | -0.153
70 | RRIRERPPRLPRPRPRPCSHPRP | -0.0193
71 | RRIRERPPRLPRPRPRPCWNPRP | -0.107
72 | RRIRERPPRLPRPRPRPCYRPRP | -0.357
73 | RRIRERPPRLPRPRPRPCYTPRP | -0.0917
74 | RRIRERPPRLPRPRPRPDAPPRP | 0.0716
75 | RRIRERPPRLPRPRPRPDASPRP | 0.0331

Row | Sequence | shrunken log2 fold change
76 | RRIRERPPRLPRPRPRPDAWPRP | 0.0128
77 | RRIRERPPRLPRPRPRPDCYPRP | -0.0856
78 | RRIRERPPRLPRPRPRPDDIPRP | -0.793
79 | RRIRERPPRLPRPRPRPDDNPRP | 0.0486
80 | RRIRERPPRLPRPRPRPDFGPRP | -0.0271
81 | RRIRERPPRLPRPRPRPDGHPRP | -0.00149
82 | RRIRERPPRLPRPRPRPDHCPRP | -0.0389
83 | RRIRERPPRLPRPRPRPDHGPRP | -0.00973
84 | RRIRERPPRLPRPRPRPDHPPRP | -0.0179
85 | RRIRERPPRLPRPRPRPDISPRP | 0.0621
86 | RRIRERPPRLPRPRPRPDKIPRP | -0.0617
87 | RRIRERPPRLPRPRPRPDLVPRP | -0.022
88 | RRIRERPPRLPRPRPRPDMAPRP | -0.00146
89 | RRIRERPPRLPRPRPRPDMCPRP | 0.00902
90 | RRIRERPPRLPRPRPRPDMHPRP | -0.0138
91 | RRIRERPPRLPRPRPRPDMTPRP | 0.133
92 | RRIRERPPRLPRPRPRPDMVPRP | 0.0162
93 | RRIRERPPRLPRPRPRPDPSPRP | 0.0648
94 | RRIRERPPRLPRPRPRPDRIPRP | -0.311
95 | RRIRERPPRLPRPRPRPDSWPRP | -0.563
96 | RRIRERPPRLPRPRPRPDVVPRP | 0.015
97 | RRIRERPPRLPRPRPRPDWFPRP | -0.00866
98 | RRIRERPPRLPRPRPRPDWGPRP | -0.00783
99 | RRIRERPPRLPRPRPRPDYLPRP | -0.612
100 | RRIRERPPRLPRPRPRPECGPRP | 0.612

Row | Sequence | shrunken log2 fold change
101 | RRIRERPPRLPRPRPRPECLPRP | -0.137
102 | RRIRERPPRLPRPRPRPEDMPRP | -0.0115
103 | RRIRERPPRLPRPRPRPEGTPRP | -0.0267
104 | RRIRERPPRLPRPRPRPEHWPRP | 0.0984
105 | RRIRERPPRLPRPRPRPEIPPRP | 0.151
106 | RRIRERPPRLPRPRPRPEKVPRP | -0.0174
107 | RRIRERPPRLPRPRPRPELHPRP | 0.0652
108 | RRIRERPPRLPRPRPRPEMWPRP | 0.452
109 | RRIRERPPRLPRPRPRPEPHPRP | -0.122
110 | RRIRERPPRLPRPRPRPERMPRP | -0.0648
111 | RRIRERPPRLPRPRPRPERPPRP | -0.0522
112 | RRIRERPPRLPRPRPRPESEPRP | 0.0931
113 | RRIRERPPRLPRPRPRPEVAPRP | 0.907
114 | RRIRERPPRLPRPRPRPEVIPRP | -0.00884
115 | RRIRERPPRLPRPRPRPEVLPRP | 0.28
116 | RRIRERPPRLPRPRPRPEVYPRP | -0.0514
117 | RRIRERPPRLPRPRPRPEYEPRP | 0.0303
118 | RRIRERPPRLPRPRPRPEYWPRP | 0.126
119 | RRIRERPPRLPRPRPRPFCCPRP | -0.0198
120 | RRIRERPPRLPRPRPRPFCLPRP | -0.558
121 | RRIRERPPRLPRPRPRPFDAPRP | -0.0912
122 | RRIRERPPRLPRPRPRPFDTPRP | -0.267
123 | RRIRERPPRLPRPRPRPFEDPRP | -0.0547
124 | RRIRERPPRLPRPRPRPFEWPRP | -0.132
125 | RRIRERPPRLPRPRPRPFEYPRP | 0.0143

Row | Sequence | shrunken log2 fold change
126 | RRIRERPPRLPRPRPRPFGMPRP | -0.0947
127 | RRIRERPPRLPRPRPRPFGSPRP | 0.0942
128 | RRIRERPPRLPRPRPRPFHYPRP | -0.416
129 | RRIRERPPRLPRPRPRPFIIPRP | -0.769
130 | RRIRERPPRLPRPRPRPFITPRP | -0.314
131 | RRIRERPPRLPRPRPRPFKRPRP | 0.0596
132 | RRIRERPPRLPRPRPRPFLLPRP | -0.688
133 | RRIRERPPRLPRPRPRPFLQPRP | -0.172
134 | RRIRERPPRLPRPRPRPFNDPRP | -0.0864
135 | RRIRERPPRLPRPRPRPFNIPRP | -0.0814
136 | RRIRERPPRLPRPRPRPFNPPRP | -0.442
137 | RRIRERPPRLPRPRPRPFNVPRP | -0.0305
138 | RRIRERPPRLPRPRPRPFPLPRP | -0.134
139 | RRIRERPPRLPRPRPRPFPNPRP | -0.165
140 | RRIRERPPRLPRPRPRPFPYPRP | -0.256
141 | RRIRERPPRLPRPRPRPFQCPRP | -0.018
142 | RRIRERPPRLPRPRPRPFRTPRP | -0.11
143 | RRIRERPPRLPRPRPRPFRYPRP | -0.268
144 | RRIRERPPRLPRPRPRPFSCPRP | 0.0263
145 | RRIRERPPRLPRPRPRPFTEPRP | -0.184
146 | RRIRERPPRLPRPRPRPFVCPRP | -0.582
147 | RRIRERPPRLPRPRPRPFVFPRP | -0.379
148 | RRIRERPPRLPRPRPRPFWPPRP | 0.0458
149 | RRIRERPPRLPRPRPRPFWWPRP | 0.239
150 | RRIRERPPRLPRPRPRPFYAPRP | -0.526
